Target: SmT1-R, resistin-trimerized SARS-CoV-2 reference strain spike ectodomain (SARS-CoV-2 | human) (UniProt P0DTC2)
Test: SPR; Biacore T200, 25°C, PBS with 0.05% Tween 20 and 3.4 mM EDTA; spike trimer captured through its resistin domain on an immobilised anti-resistin VHH-Fc; monomeric ACE2 flowed over, single cycle kinetics, three concentrations, 5-fold dilutions from 200 nM; 1:1 binding model

recombinant human ACE2, purified monomeric (from UniProt Q9BYF1 18-805) (receptor)
Kd: 28 nM

— publication PMC10140330
